B1: Phosphoglycerate kinase, P00560 (parent)
chain: MSLSSKLSVQDLDLKDKRVFIRVDFNVPLDGKKITSNQRIVAALPTIKYVLEHHPRYVVLASHLGRPNGERNEKYSLAPVAKELQSLLGKDVTFLNDCVGPEVEAAVKASAPGSVILLENLRYHIEEEGSRKVDGQKVKASKEDVQKFRHELSSLADVYINDAFGTAHRAHSSMVGFDLPQRAAGFLLEKELKYFGKALENPTRPFLAILGGAKVADKIQLIDNLLDKVDSIIIGGGMAFTFKKVLENTEIGDSIFDKAGAEIVPKLMEKAKAKGVEVVLPVDFIIADAFSADANTKTVTDKEGIPAGWQGLDNGPESRKLFAATVAKAKTIVWNGPPGVFEFEKFAAGTKALLDEVVKSSAAGNTVIIGGGDTATVAKKYGVTDKISHVSTGGGASLELLEGKELPGVAFLSEKK

Variants of: B1
Conditions: Saccharomyces cerevisiae (strain ATCC 204508 / S288c), pH 7.5, 25 °C, GdnHCl, Sodium phosphate 20 mM, structure 3PGK, whole UniProt chain shown

Variant	ddG of mutation (higher = less stable) (CD)	denaturant m value (CD)	denaturant midpoint (higher = more stable) (CD)	unfolding free energy (CD)	ddG of mutation (higher = less stable) (Fluorescence)	denaturant m value (Fluorescence)	denaturant midpoint (higher = more stable) (Fluorescence)	unfolding free energy (Fluorescence)
W309F W334F	6.33 kcal/mol	6.1 kcal/mol/M	0.48 M	2.98 kcal/mol	8.72 kcal/mol	5.9 kcal/mol/M	0.49 M	3.03 kcal/mol
W309F	3.63 kcal/mol	8.4 kcal/mol/M	0.67 M	5.68 kcal/mol	3.71 kcal/mol	12.8 kcal/mol/M	0.63 M	8.04 kcal/mol
W334F	3.93 kcal/mol	8.4 kcal/mol/M	0.63 M	5.38 kcal/mol	–	–	–	–
